Measured values from patent US20220089776A1 (OREGON HEALTH AND SCIENCE UNIVERSITY, published 2022).

How the values were obtained:
[1] = biological target: T1, human blood protein factor XII (FXII) (human, UniProt P00748 20-615); experiment: cell-based or functional assay
T1 sequence (looked up): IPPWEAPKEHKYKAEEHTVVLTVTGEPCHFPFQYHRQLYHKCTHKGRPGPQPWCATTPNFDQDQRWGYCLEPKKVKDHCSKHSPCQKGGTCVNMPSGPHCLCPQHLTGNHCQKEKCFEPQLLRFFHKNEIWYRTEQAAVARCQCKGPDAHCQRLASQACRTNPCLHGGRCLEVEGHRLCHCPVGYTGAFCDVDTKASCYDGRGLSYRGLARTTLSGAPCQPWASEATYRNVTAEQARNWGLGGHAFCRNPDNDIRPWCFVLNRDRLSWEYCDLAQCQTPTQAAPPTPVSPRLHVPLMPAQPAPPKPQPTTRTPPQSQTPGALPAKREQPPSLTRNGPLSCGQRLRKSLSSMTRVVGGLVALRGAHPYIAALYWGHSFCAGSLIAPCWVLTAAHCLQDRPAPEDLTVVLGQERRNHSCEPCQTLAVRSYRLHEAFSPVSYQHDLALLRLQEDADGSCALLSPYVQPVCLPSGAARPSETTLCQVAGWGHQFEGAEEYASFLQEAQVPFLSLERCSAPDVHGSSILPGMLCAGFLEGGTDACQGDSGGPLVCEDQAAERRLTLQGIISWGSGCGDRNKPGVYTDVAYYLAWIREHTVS

[2] = biological target: T1, human blood protein factor XII (FXII); experiment: cell-based or functional assay; remark: listed apart in the source
[3] = biological target: T1, human blood protein factor XII (FXII); experiment: cell-based or functional assay; remark: listed apart in the source
[4] = biological target: T2, human activated FXII (FXIIa) (human, UniProt P00748 20-615, limits assumed); experiment: cell-based or functional assay
T2 sequence (looked up): T1 sequence (looked up)

rat FXII = biological target: T3, rat FXII (rat, UniProt D3ZTE0 20-595); experiment: Western blot of platelet-poor plasma, non-reduced SDS-PAGE
T3 construct: mature; Plasma protein
T3 sequence (looked up): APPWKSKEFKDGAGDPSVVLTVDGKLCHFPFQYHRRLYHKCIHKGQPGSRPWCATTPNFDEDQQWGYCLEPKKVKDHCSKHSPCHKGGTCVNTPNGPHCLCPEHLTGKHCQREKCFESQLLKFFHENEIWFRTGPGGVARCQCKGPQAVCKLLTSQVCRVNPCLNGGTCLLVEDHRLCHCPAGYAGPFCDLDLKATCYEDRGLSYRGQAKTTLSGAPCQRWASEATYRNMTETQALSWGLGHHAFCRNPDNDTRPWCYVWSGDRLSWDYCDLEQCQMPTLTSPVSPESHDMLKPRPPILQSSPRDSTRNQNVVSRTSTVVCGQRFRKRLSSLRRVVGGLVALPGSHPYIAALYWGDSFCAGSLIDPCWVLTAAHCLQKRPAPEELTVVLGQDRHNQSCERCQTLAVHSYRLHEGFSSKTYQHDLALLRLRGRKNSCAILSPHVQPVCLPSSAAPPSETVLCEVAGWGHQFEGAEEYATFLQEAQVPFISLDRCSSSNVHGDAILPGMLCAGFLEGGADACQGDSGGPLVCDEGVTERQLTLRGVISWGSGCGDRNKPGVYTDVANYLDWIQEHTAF

mouse FXII = biological target: T4, mouse FXII (mouse, UniProt Q80YC5 20-597); experiment: Western blot of recombinant mouse FXII, non-reduced and reduced SDS-PAGE; primary antibody murine 5C12
T4 construct: mature; Plasma protein; Tested only in the aPTT assay
T4 sequence (looked up): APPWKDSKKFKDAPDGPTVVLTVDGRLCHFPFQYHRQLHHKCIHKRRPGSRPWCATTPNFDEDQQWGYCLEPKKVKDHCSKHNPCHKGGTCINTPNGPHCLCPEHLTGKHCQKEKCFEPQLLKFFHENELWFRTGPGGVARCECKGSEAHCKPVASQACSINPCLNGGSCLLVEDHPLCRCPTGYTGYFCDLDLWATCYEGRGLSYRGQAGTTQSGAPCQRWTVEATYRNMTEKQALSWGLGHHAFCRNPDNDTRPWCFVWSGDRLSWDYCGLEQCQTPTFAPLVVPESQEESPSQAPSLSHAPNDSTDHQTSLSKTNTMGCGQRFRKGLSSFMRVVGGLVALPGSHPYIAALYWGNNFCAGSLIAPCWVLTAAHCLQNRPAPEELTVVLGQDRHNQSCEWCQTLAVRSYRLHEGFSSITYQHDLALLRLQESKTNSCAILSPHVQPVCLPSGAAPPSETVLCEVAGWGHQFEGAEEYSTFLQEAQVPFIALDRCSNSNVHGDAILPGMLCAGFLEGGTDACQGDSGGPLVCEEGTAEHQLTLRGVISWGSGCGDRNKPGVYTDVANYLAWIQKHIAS
From the text: FIG. 3A-3C: Species specificity of 5C12. (FIG. 3A) Western blots of platelet poor plasmas from different species (indicated above each lane) size fractionated by SDS-PAGE […]. Species included in alphabetical order: African green monkey, baboon, beagle, cat, cattle, chicken, cynomolgus monkey, dog, elephant, giant anteater, horse, human, human deficient in FXII, llama, marmoset, pig, rabbit, raccoon, rat, red kangaroo, rhesus macaque and tiger. Human plasma and human deficient in FXII plasma were used in all gels as a positive and negative control, respectively. […] 5C12 also recognizes both the alpha (comprising both the light and heavy chain of FXII) and the beta (comprising only the light chain and a nonapeptide fragment of the heavy chain) form of activated FXII (FXIIa) (FIG. 3C). The primary antibody for all Western blots was murine 5C12, the secondary antibody was goat-anti-mouse polyclonal.

B1: mouse monoclonal antibody 5C12 (antibody, mouse IgG1, kappa, V domains shown)
VH: DVQLQESGPDLVKPSQSLSLTCTVTGYSITSGYSWHWIRQFPGNNLEWMGYIQYSGNTNSNPSLKSRISITRDTSKNQFFLHLNSVTTEDTATYYCARWGSFDYWGQGTTLTVSS
VL: QIVLTQSPAIMSASPGEKVTMTCSASSSVNYMHWYQQKSGTSPKRWIYDTSKLASGVPARFSGSGSGTSYSLTISSMEAGDAATYYCQQWSGNPPTFGGGTILEIKR
notes: Purified from hybridoma; also called AB053; 5C12 MAb
- IC50 (read off the curve): FXIIa amidolytic activity after activation of 50 nM FXII with short polyphosphates, PK and HK [1]: ~10 nM
- IC50 (read off the curve): FXIIa amidolytic activity after activation of 50 nM FXII with long polyphosphates, PK and HK [2]: ~10 nM
- IC50 (read off the curve): FXIIa amidolytic activity after activation of 40 nM FXII with 1 µg/ml dextran sulfate [3]: ~6 nM
- IC50 (read off the curve): amidolytic activity of 20 nM FXIIa [4]: ~7 nM
- binding result (rat FXII): no binding
- binding result (mouse FXII): no binding
